This note sets out measurements from PMC9352680, “A comprehensive thermodynamic model for RNA binding by the Saccharomyces cerevisiae Pumilio protein PUF4”.

The chains are these.
B1: Id_ii_S1_P5E.3_K5.2_C5.2_[C-2A]_H5.2_A5.1_F5.1_T5.2_[A12T] (ssRNA)
RNA: UCUCUUAUUAUAUUAUUAUUUCUCUU
B2: Ib_S1_P4E.1_K4.1_C4.1_H4.1_A4.1_[A6T]_[T7A]_F4.1_T4.1 (ssRNA)
RNA: UCUCUUUGUAUUAUAUCUCUU
B3: Id_ii_S1_P5E.3_K5.2_C5.2_[C-2A]_H5.2_A5.1_F5.1_T5.2_[T11C]_[A12C] (ssRNA)
RNA: UCUCUUAUUAUAUUAUUACCUCUCUU
B4: Id_ii_S1_P5E.3_K5.2_C5.2_[C-2A]_[T-1A]_H5.2_A5.1_F5.1_T5.2_[T11C]_[A12T] (ssRNA)
RNA: UCUCUUAAUAUAUUAUUACUUCUCUU
B5: Id_ii_S1_P5E.3_K5.2_C5.2_[C-2A]_H5.2_A5.1_F5.1_T5.2_[T11G]_[A12C] (ssRNA)
RNA: UCUCUUAUUAUAUUAUUAGCUCUCUU
B6: Id_ii_S1_P5E.3_K5.2_C5.2_[C-2T]_H5.2_A5.1_F5.1_T5.2_[T11A]_[A12C] (ssRNA)
RNA: UCUCUUUUUAUAUUAUUAACUCUCUU
B7: Ib_S1_P4E.1_K4.1_C4.1_H4.1_A4.1_[A6T]_[T7C]_F4.1_T4.1 (ssRNA)
RNA: UCUCUUUGUAUUCUAUCUCUU
B8: Id_ii_S1_P5E.3_K5.2_C5.2_[C-2A]_[T-1C]_H5.2_A5.1_F5.1_T5.2_[T11C]_[A12C] (ssRNA)
RNA: UCUCUUACUAUAUUAUUACCUCUCUU
B9: Id_ii_S1_P5E.3_K5.2_C5.2_[C-2A]_[T-1C]_H5.2_A5.1_F5.1_T5.2_[A12C] (ssRNA)
RNA: UCUCUUACUAUAUUAUUAUCUCUCUU
B10: Id_ii_S1_P5E.3_K5.2_C5.2_[C-2T]_H5.2_A5.1_F5.1_T5.2_[A12T] (ssRNA)
RNA: UCUCUUUUUAUAUUAUUAUUUCUCUU
B11: Id_ii_S1_P5E.3_K5.2_C5.2_[C-2A]_H5.2_A5.1_F5.1_T5.2_[T11C] (ssRNA)
RNA: UCUCUUAUUAUAUUAUUACAUCUCUU
B12: Id_ii_S1_P5E.3_K5.2_C5.2_[C-2A]_[T-1C]_H5.2_A5.1_F5.1_T5.2_[T11A]_[A12T] (ssRNA)
RNA: UCUCUUACUAUAUUAUUAAUUCUCUU
B13: Id_ii_S1_P5E.3_K5.2_C5.2_[C-2A]_[T-1C]_H5.2_A5.1_F5.1_T5.2_[T11A] (ssRNA)
RNA: UCUCUUACUAUAUUAUUAAAUCUCUU
B14: Id_ii_S1_P5E.3_K5.2_C5.2_[C-2A]_H5.2_A5.1_F5.1_T5.2_[T11C]_[A12T] (ssRNA)
RNA: UCUCUUAUUAUAUUAUUACUUCUCUU
B15: Id_ii_S1_P5E.3_K5.2_C5.2_[C-2A]_[T-1A]_H5.2_A5.1_F5.1_T5.2_[T11C]_[A12C] (ssRNA)
RNA: UCUCUUAAUAUAUUAUUACCUCUCUU
B16: Id_ii_S1_P5E.3_K5.2_C5.2_[C-2A]_[T-1C]_H5.2_A5.1_F5.1_T5.2_[T11A]_[A12C] (ssRNA)
RNA: UCUCUUACUAUAUUAUUAACUCUCUU
B17: Id_ii_S1_P5E.3_K5.2_C5.2_[C-2A]_H5.2_A5.1_F5.1_T5.2_[T11A]_[A12C] (ssRNA)
RNA: UCUCUUAUUAUAUUAUUAACUCUCUU
B18: Id_ii_S1_P5E.3_K5.2_C5.2_[C-2A]_[T-1A]_H5.2_A5.1_F5.1_T5.2_[T11C] (ssRNA)
RNA: UCUCUUAAUAUAUUAUUACAUCUCUU
B19: Id_ii_S1_P5E.3_K5.2_C5.2_[C-2A]_H5.2_A5.1_F5.1_T5.2_[A12C] (ssRNA)
RNA: UCUCUUAUUAUAUUAUUAUCUCUCUU
B20: Id_ii_S1_P5E.3_K5.2_C5.2_[C-2A]_[T-1C]_H5.2_A5.1_F5.1_T5.2_[T11C]_[A12T] (ssRNA)
RNA: UCUCUUACUAUAUUAUUACUUCUCUU
B21: Id_ii_S1_P5E.3_K5.2_C5.2_[C-2T]_H5.2_A5.1_F5.1_T5.2_[T11A]_[A12T] (ssRNA)
RNA: UCUCUUUUUAUAUUAUUAAUUCUCUU
B22: Id_ii_S1_P5E.3_K5.2_C5.2_[C-2A]_H5.2_A5.1_F5.1_T5.2_[T11C]_[A12G] (ssRNA)
RNA: UCUCUUAUUAUAUUAUUACGUCUCUU
B23: Id_ii_S1_P5E.3_K5.2_C5.2_[C-2T]_H5.2_A5.1_F5.1_T5.2_[A12C] (ssRNA)
RNA: UCUCUUUUUAUAUUAUUAUCUCUCUU
B24: Id_ii_S1_P5E.3_K5.2_C5.2_[C-2A]_[T-1C]_H5.2_A5.1_F5.1_T5.2_[T11C] (ssRNA)
RNA: UCUCUUACUAUAUUAUUACAUCUCUU

For orientation: Kd means a measure of binding affinity in units of concentration. A lower Kd goes with tighter binding.

The target of the data set is T1, PUF4 RNA-binding domain (Saccharomyces cerevisiae, UniProt P25339 537-888).
T1 sequence: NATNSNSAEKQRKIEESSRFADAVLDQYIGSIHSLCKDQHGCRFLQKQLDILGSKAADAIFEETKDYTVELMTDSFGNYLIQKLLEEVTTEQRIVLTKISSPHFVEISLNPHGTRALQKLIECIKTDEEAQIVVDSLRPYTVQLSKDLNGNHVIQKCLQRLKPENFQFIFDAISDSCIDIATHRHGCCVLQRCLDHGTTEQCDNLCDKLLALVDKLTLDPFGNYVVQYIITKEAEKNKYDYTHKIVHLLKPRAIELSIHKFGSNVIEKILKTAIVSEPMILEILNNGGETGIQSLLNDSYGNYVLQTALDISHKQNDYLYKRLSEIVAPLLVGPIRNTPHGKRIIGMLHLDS
Kind of data set: Mg; RNA-MaP; 20 mM Na-HEPES pH 7.4, 30 mM KOAc, 0.75 mM MgCl2, 0.1% Tween-20, 5% glycerol, 0.1 mg/mL BSA, 2 mM DTT; 25 C; 0.0125-409.6 nM protein. The following applies: tags: N-His6-TEV cleaved; C-SNAP kept, Cy3B-labelled; label: tethered on chip by stalled RNA polymerase.
B1 gave a Kd of 160 nM. As for B2, the Kd was 2.13 nM. In the case of B3, the affinity, expressed as Kd, was 203 nM. The molecule B4 gave a Kd of 552 nM. This Kd lies about 2.7-fold higher than the previous one. The value for B5 was 208 nM. The value for B6 was 524 nM. As to B7, the affinity, expressed as Kd, was 2.85 nM. For B8 the value was 520 nM; for B9, 536 nM; for B10, 181 nM. In the case of B11, the Kd was determined as 128 nM. B12 showed a Kd of 453 nM.

For the molecule B13, the affinity, expressed as Kd, was 626 nM. For B14 the value was 175 nM; for B15, 668 nM.

As to B16, binding was characterised by a dissociation constant (Kd) of 706 nM. Molecule B17 gave a Kd of 159 nM. Molecule B18 returned a dissociation constant Kd of 601 nM.

Turning to B19, the Kd was 63.5 nM. The value for B20 was 486 nM. B21: the Kd was 457 nM. B22: the Kd is 126 nM.

On to B23, for which the dissociation constant (Kd) stood at 550 nM. The value for B24 was 424 nM.
